Measurements taken from patent US20250206797A1.
Changes are numbered by the printed parent chain.

B1: fusion protein 5 (insulin analog 1 + L2 + IgG2 Fc1) (Fc fusion)
chain: FVNQHLCGEHLVEALYLVCGERGFHYGGGGGGSGGGGGIVEQCCESICSLEQLENYCGGGGGQGGGGQGGGGQGGGGQGGGGQECPPCPAPPVAGPSVFLFPPKPKDTLMISRTPEVTCVVVDVSHEDPEVQFNWYVDGVEVHNAKTKPREEQFNSTFRVVSVLTVVHQDWLNGKEYKCKVSNKGLPAPIEKTISKTKGQPREPQVYTLPPSREEMTKNQVSLTCLVKGFYPSDIAVEWESNGQPENNYKTTPPMLDSDGSFFLYSKLTVDKSRWQQGNVFSCSVMHEALHNHYTQKSLSLSPG
B2: fusion protein 7 (insulin analog 1 + L2 + IgG2 Fc1) (Fc fusion)
chain: FVNQHLCGEHLVEALYLVCGERGFHYGGGGGGSGGGGGIVEQCCESICSLEQLENYCGPGPQPGPQPGPQPGPQPGPQPGPQPGPQPGPQECPPCPAPPVAGPSVFLFPPKPKDTLMISRTPEVTCVVVDVSHEDPEVQFNWYVDGVEVHNAKTKPREEQFNSTFRVVSVLTVVHQDWLNGKEYKCKVSNKGLPAPIEKTISKTKGQPREPQVYTLPPSREEMTKNQVSLTCLVKGFYPSDIAVEWESNGQPENNYKTTPPMLDSDGSFFLYSKLTVDKSRWQQGNVFSCSVMHEALHNHYTQKSLSLSPG
B3: fusion protein 6 (insulin analog 5 + L2 + IgG2 Fc1) (Fc fusion)
chain: FVNQHLCGEHLVEALYLVCGERGFHYGGGGGSGGGGGIVEQCCESICSLEQLENYCGGGGGQGGGGQGGGGQGGGGGECPPCPAPPVAGPSVFLFPPKPKDTLMISRTPEVTCVVVDVSHEDPEVQFNWYVDGVEVHNAKTKPREEQFNSTFRVVSVLTVVHQDWLNGKEYKCKVSNKGLPAPIEKTISKTKGQPREPQVYTLPPSREEMTKNQVSLTCLVKGFYPSDIAVEWESNGQPENNYKTTPPMLDSDGSFFLYSKLTVDKSRWQQGNVFSCSVMHEALHNHYTQKSLSLSPG
B4: fusion protein 8 (insulin analog 1 + L2 + IgG2 Fc1) (Fc fusion)
chain: FVNQHLCGEHLVEALYLVCGERGFHYGGGGGGSGGGGGIVEQCCESICSLEQLENYCGGGGGAGGGGAGGGGAGGGGGECPPCPAPPVAGPSVFLFPPKPKDTLMISRTPEVTCVVVDVSHEDPEVQFNWYVDGVEVHNAKTKPREEQFNSTFRVVSVLTVVHQDWLNGKEYKCKVSNKGLPAPIEKTISKTKGQPREPQVYTLPPSREEMTKNQVSLTCLVKGFYPSDIAVEWESNGQPENNYKTTPPMLDSDGSFFLYSKLTVDKSRWQQGNVFSCSVMHEALHNHYTQKSLSLSPG
B5: LY3209590 (Fc fusion)
chain: B4 chain with E9S, Y16E, E45T, I47T, E51D, A63Q, A68Q, A73Q
B6: fusion protein 1 (insulin analog 1 + L2 + IgG2 Fc1) (Fc fusion)
chain: B4 chain with A63Q, A68Q, A73Q
B7: fusion protein 2 (insulin analog 2 + L2 + IgG2 Fc1) (Fc fusion)
chain: B4 chain with E9S, E45H, A63Q, A68Q, A73Q
B8: fusion protein 4 (insulin analog 4 + L2 + IgG2 Fc1) (Fc fusion)
chain: B4 chain with N3K, A63Q, A68Q, A73Q
B9: fusion protein 9 (insulin analog 6 + L2 + IgG2 Fc1) (Fc fusion)
chain: B4 chain with G58N, G59H, A63Q, A68Q, A73Q
B10: fusion protein 3 (insulin analog 3 + L2 + IgG2 Fc1) (Fc fusion)
chain: B4 chain with E9S, Y16H, E45T, G58N, A63Q, A68Q, A73Q

What follows are binders tested against Type B human insulin receptor (hIR-B) (human), P06213 (assay: cell-based or functional assay).

Q: With B1 as the binder, how does the Activity of human insulin receptor subtype B (EC50), autophosphorylation in CHO-K1-hIRB cells (HTRF phospho-Y1150/1151) read?
A: 182 nM

Q: B2 was tested. Which Activity of human insulin receptor subtype B (EC50), autophosphorylation in CHO-K1-hIRB cells (HTRF phospho-Y1150/1151) did it give?
A: 275 nM

Q: With B3 as the binder, how does the Activity of human insulin receptor subtype B (EC50), autophosphorylation in CHO-K1-hIRB cells (HTRF phospho-Y1150/1151) read?
A: 328 nM

Q: How did the Activity of human insulin receptor subtype B (EC50), autophosphorylation in CHO-K1-hIRB cells (HTRF phospho-Y1150/1151) turn out when B4 was run?
A: 326 nM

Q: For B5, which Activity of human insulin receptor subtype B (EC50), autophosphorylation in CHO-K1-hIRB cells (HTRF phospho-Y1150/1151) is on record?
A: 116 nM

Q: Which Activity of human insulin receptor subtype B (EC50), autophosphorylation in CHO-K1-hIRB cells (HTRF phospho-Y1150/1151) does the source give for B6 here?
A: 422 nM

Q: B7 was tested. Which Activity of human insulin receptor subtype B (EC50), autophosphorylation in CHO-K1-hIRB cells (HTRF phospho-Y1150/1151) did it give?
A: 2.68 nM

Q: Which Activity of human insulin receptor subtype B (EC50), autophosphorylation in CHO-K1-hIRB cells (HTRF phospho-Y1150/1151) does the source give for B8 here?
A: 288 nM

Q: B9 was tested. Which Activity of human insulin receptor subtype B (EC50), autophosphorylation in CHO-K1-hIRB cells (HTRF phospho-Y1150/1151) did it give?
A: 120 nM

Q: For B10, which Activity of human insulin receptor subtype B (EC50), autophosphorylation in CHO-K1-hIRB cells (HTRF phospho-Y1150/1151) is on record?
A: 4.57 nM
